{
  "source": "paper PMC9259562",
  "about": "(Scientific Reports, 2022)",
  "biological_target": "Stx2a A-subunit (dissociated from recombinant Stx2a) (enterohemorrhagic Escherichia coli …, UniProt P09385 23-319)",
  "sequence (P09385 23-319)": "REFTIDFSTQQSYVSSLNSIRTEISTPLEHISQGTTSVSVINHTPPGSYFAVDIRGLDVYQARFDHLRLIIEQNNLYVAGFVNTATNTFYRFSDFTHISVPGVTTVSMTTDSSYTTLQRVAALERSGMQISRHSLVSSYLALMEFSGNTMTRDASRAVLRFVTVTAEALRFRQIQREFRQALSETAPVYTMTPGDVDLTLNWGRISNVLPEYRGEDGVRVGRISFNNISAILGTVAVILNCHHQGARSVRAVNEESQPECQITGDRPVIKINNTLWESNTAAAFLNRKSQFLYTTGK",
  "test": "AlphaScreen or HTRF",
  "conditions": "both partners purified",
  "note": "Ends that are not written are not given here.",
  "data": [
    {"binder": "RRRRA-NH2 (source: synthetic peptide)", "note": "[R4A-mono]", "values": [
      {"measurement": "IC50", "result": 2700, "unit": "nM"}
    ]}
  ]
}
